Test results taken from patent publication US20230406885A1, “CYCLIC PEPTIDES FOR TRAPPING INTERLEUKIN-1 BETA” (MERCK SHARP & DOHME LLC, priority 2022, published 2023).
*1 amine or outer side, *2 acyl side, *3 side chain or, on linkers, in order; H or OH if unused. [ ]: non-standard residue; d: D form. TyrEtNAc = L-tyrosine O-ethyl acetamide, (S)-3-(4-(2-acetamidoethoxy)phenyl)-2-aminopropanoic acid, CC(=O)NCCOc1ccc(C[C@H](N[*:1])C(=O)[*:2])cc1; 3Pal4Ph4CO2H = (S)-4-(5-(2-amino-2-carboxyethyl)pyridin-2-yl)benzoic acid, O=C([C@H](Cc1ccc(-c2ccc(C(=O)[*:3])cc2)nc1)N[*:1])[*:2]; hF3CF3 = (S)-2-amino-4-(3-(trifluoromethyl)phenyl)butanoic acid, O=C([C@H](CCc1cccc(C(F)(F)F)c1)N[*:1])[*:2]; hF2CF3 = (S)-2-amino-4-(2-(trifluoromethyl)phenyl)butanoic acid, O=C([C@H](CCc1ccccc1C(F)(F)F)N[*:1])[*:2]; Pro(trans-4-NH2) = O=C([C@@H]1C[C@@H](N[*:3])CN1[*:1])[*:2]; Bip(4'-COOH) = N[C@@H](Cc1ccc(-c2ccc(C(=O)O)cc2)cc1)C(=O)O; 1Nal(3S-Me) = C[C@@H](c1cccc2ccccc12)[C@H](N)C(=O)O; hPhe(4-CF3) = N[C@@H](CCc1ccc(C(F)(F)F)cc1)C(=O)O; Phe(4-COOH) = N[C@@H](Cc1ccc(C(=O)O)cc1)C(=O)O; h3Pal(5-CN) = N#Cc1cncc(CC[C@H](N)C(=O)O)c1; Ala(4-THP) = N[C@@H](CC1CCOCC1)C(=O)O; hTyr = N[C@@H](CCc1ccc(O)cc1)C(=O)O; 4Pal = N[C@@H](Cc1ccncc1)C(=O)O; dDab = NCC[C@@H](N)C(=O)O; dNMeA = CN[C@H](C)C(=O)O; Dab = NCC[C@H](N)C(=O)O; Dap = NC[C@H](N)C(=O)O; Aib = CC(C)(N)C(=O)O

B1: SEQ ID NO: 102 (peptide)
peptide: cyclo([TyrEtNAc]W[Phe(4-COOH)]G[Pro(trans-4-NH2)][1Nal(3S-Me)]D[dNMeA]G[Bip(4'-COOH)][4Pal]G[dDab][h3Pal(5-CN)])
SMILES: CC(=O)NCCOc1ccc(C[C@@H]2NC(=O)[C@H](CCc3cncc(C#N)c3)NC(=O)[C@@H](CCN)NC(=O)CNC(=O)[C@H](Cc3ccncc3)NC(=O)[C@H](Cc3ccc(-c4ccc(C(=O)O)cc4)cc3)NC(=O)CNC(=O)[C@@H](C)N(C)C(=O)[C@H](CC(=O)O)NC(=O)[C@H]([C@@H](C)c3cccc4ccccc34)NC(=O)[C@@H]3C[C@@H](N)CN3C(=O)CNC(=O)[C@H](Cc3ccc(C(=O)O)cc3)NC(=O)[C@H](Cc3c[nH]c4ccccc34)NC2=O)cc1
B2: SEQ ID NO: 106 (peptide)
peptide: cyclo([TyrEtNAc]W[Phe(4-COOH)]G[Pro(trans-4-NH2)][1Nal(3S-Me)]D[dNMeA]G[Bip(4'-COOH)][Ala(4-THP)]G[dDab][h3Pal(5-CN)])
SMILES: CC(=O)NCCOc1ccc(C[C@@H]2NC(=O)[C@H](CCc3cncc(C#N)c3)NC(=O)[C@@H](CCN)NC(=O)CNC(=O)[C@H](CC3CCOCC3)NC(=O)[C@H](Cc3ccc(-c4ccc(C(=O)O)cc4)cc3)NC(=O)CNC(=O)[C@@H](C)N(C)C(=O)[C@H](CC(=O)O)NC(=O)[C@H]([C@@H](C)c3cccc4ccccc34)NC(=O)[C@@H]3C[C@@H](N)CN3C(=O)CNC(=O)[C@H](Cc3ccc(C(=O)O)cc3)NC(=O)[C@H](Cc3c[nH]c4ccccc34)NC2=O)cc1
B3: SEQ ID NO: 111 (peptide)
peptide: cyclo([TyrEtNAc]W[Phe(4-COOH)]G[Pro(trans-4-NH2)][1Nal(3S-Me)]D[dNMeA]G[Bip(4'-COOH)]KS[dA][hPhe(4-CF3)])
SMILES: CC(=O)NCCOc1ccc(C[C@@H]2NC(=O)[C@H](CCc3ccc(C(F)(F)F)cc3)NC(=O)[C@@H](C)NC(=O)[C@H](CO)NC(=O)[C@H](CCCCN)NC(=O)[C@H](Cc3ccc(-c4ccc(C(=O)O)cc4)cc3)NC(=O)CNC(=O)[C@@H](C)N(C)C(=O)[C@H](CC(=O)O)NC(=O)[C@H]([C@@H](C)c3cccc4ccccc34)NC(=O)[C@@H]3C[C@@H](N)CN3C(=O)CNC(=O)[C@H](Cc3ccc(C(=O)O)cc3)NC(=O)[C@H](Cc3c[nH]c4ccccc34)NC2=O)cc1
B4: SEQ ID NO: 103 (peptide)
peptide: cyclo([TyrEtNAc]W[Phe(4-COOH)]G[Pro(trans-4-NH2)][1Nal(3S-Me)]D[dNMeA]G[Bip(4'-COOH)][4Pal]S[dA][hF2CF3])
SMILES: CC(=O)NCCOc1ccc(C[C@@H]2NC(=O)[C@H](CCc3ccccc3C(F)(F)F)NC(=O)[C@@H](C)NC(=O)[C@H](CO)NC(=O)[C@H](Cc3ccncc3)NC(=O)[C@H](Cc3ccc(-c4ccc(C(=O)O)cc4)cc3)NC(=O)CNC(=O)[C@@H](C)N(C)C(=O)[C@H](CC(=O)O)NC(=O)[C@H]([C@@H](C)c3cccc4ccccc34)NC(=O)[C@@H]3C[C@@H](N)CN3C(=O)CNC(=O)[C@H](Cc3ccc(C(=O)O)cc3)NC(=O)[C@H](Cc3c[nH]c4ccccc34)NC2=O)cc1
B5: SEQ ID NO: 110 (peptide)
peptide: cyclo([TyrEtNAc]W[Phe(4-COOH)]G[Pro(trans-4-NH2)][1Nal(3S-Me)]D[dNMeA]G[Bip(4'-COOH)]KL[dA][hTyr])
SMILES: CC(=O)NCCOc1ccc(C[C@@H]2NC(=O)[C@H](CCc3ccc(O)cc3)NC(=O)[C@@H](C)NC(=O)[C@H](CC(C)C)NC(=O)[C@H](CCCCN)NC(=O)[C@H](Cc3ccc(-c4ccc(C(=O)O)cc4)cc3)NC(=O)CNC(=O)[C@@H](C)N(C)C(=O)[C@H](CC(=O)O)NC(=O)[C@H]([C@@H](C)c3cccc4ccccc34)NC(=O)[C@@H]3C[C@@H](N)CN3C(=O)CNC(=O)[C@H](Cc3ccc(C(=O)O)cc3)NC(=O)[C@H](Cc3c[nH]c4ccccc34)NC2=O)cc1
B6: SEQ ID NO: 109 (peptide)
peptide: cyclo([TyrEtNAc]W[Phe(4-COOH)]G[Pro(trans-4-NH2)][1Nal(3S-Me)]D[dNMeA]G[Bip(4'-COOH)]KG[dNMeA][hTyr])
SMILES: CC(=O)NCCOc1ccc(C[C@@H]2NC(=O)[C@H](CCc3ccc(O)cc3)NC(=O)[C@@H](C)N(C)C(=O)CNC(=O)[C@H](CCCCN)NC(=O)[C@H](Cc3ccc(-c4ccc(C(=O)O)cc4)cc3)NC(=O)CNC(=O)[C@@H](C)N(C)C(=O)[C@H](CC(=O)O)NC(=O)[C@H]([C@@H](C)c3cccc4ccccc34)NC(=O)[C@@H]3C[C@@H](N)CN3C(=O)CNC(=O)[C@H](Cc3ccc(C(=O)O)cc3)NC(=O)[C@H](Cc3c[nH]c4ccccc34)NC2=O)cc1
B7: SEQ ID NO: 100 (peptide)
peptide: cyclo([TyrEtNAc]W[Phe(4-COOH)]G[Pro(trans-4-NH2)][1Nal(3S-Me)]D[dNMeA]G[Bip(4'-COOH)][4Pal][Dab][dA][hPhe(4-CF3)])
SMILES: CC(=O)NCCOc1ccc(C[C@@H]2NC(=O)[C@H](CCc3ccc(C(F)(F)F)cc3)NC(=O)[C@@H](C)NC(=O)[C@H](CCN)NC(=O)[C@H](Cc3ccncc3)NC(=O)[C@H](Cc3ccc(-c4ccc(C(=O)O)cc4)cc3)NC(=O)CNC(=O)[C@@H](C)N(C)C(=O)[C@H](CC(=O)O)NC(=O)[C@H]([C@@H](C)c3cccc4ccccc34)NC(=O)[C@@H]3C[C@@H](N)CN3C(=O)CNC(=O)[C@H](Cc3ccc(C(=O)O)cc3)NC(=O)[C@H](Cc3c[nH]c4ccccc34)NC2=O)cc1
B8: SEQ ID NO: 11 (peptide)
peptide: cyclo([3Pal4Ph4CO2H]W[Phe(4-COOH)]G[Pro(trans-4-NH2)][1Nal(3S-Me)]D[dNMeA]G[Bip(4'-COOH)]W[Dap][dA][hTyr])
SMILES: C[C@@H]1C(=O)NCC(=O)N[C@@H](Cc2ccc(-c3ccc(C(=O)O)cc3)cc2)C(=O)N[C@@H](Cc2c[nH]c3ccccc23)C(=O)N[C@@H](CN)C(=O)N[C@H](C)C(=O)N[C@@H](CCc2ccc(O)cc2)C(=O)N[C@@H](Cc2ccc(-c3ccc(C(=O)O)cc3)nc2)C(=O)N[C@@H](Cc2c[nH]c3ccccc23)C(=O)N[C@@H](Cc2ccc(C(=O)O)cc2)C(=O)NCC(=O)N2C[C@H](N)C[C@H]2C(=O)N[C@@H]([C@@H](C)c2cccc3ccccc23)C(=O)N[C@@H](CC(=O)O)C(=O)N1C
B9: SEQ ID NO: 105 (peptide)
peptide: cyclo([TyrEtNAc]W[Phe(4-COOH)]G[Pro(trans-4-NH2)][1Nal(3S-Me)]D[dNMeA]G[Bip(4'-COOH)][4Pal]S[dA][hPhe(4-CF3)])
SMILES: CC(=O)NCCOc1ccc(C[C@@H]2NC(=O)[C@H](CCc3ccc(C(F)(F)F)cc3)NC(=O)[C@@H](C)NC(=O)[C@H](CO)NC(=O)[C@H](Cc3ccncc3)NC(=O)[C@H](Cc3ccc(-c4ccc(C(=O)O)cc4)cc3)NC(=O)CNC(=O)[C@@H](C)N(C)C(=O)[C@H](CC(=O)O)NC(=O)[C@H]([C@@H](C)c3cccc4ccccc34)NC(=O)[C@@H]3C[C@@H](N)CN3C(=O)CNC(=O)[C@H](Cc3ccc(C(=O)O)cc3)NC(=O)[C@H](Cc3c[nH]c4ccccc34)NC2=O)cc1
B10: SEQ ID NO: 108 (peptide)
peptide: cyclo([TyrEtNAc]W[Phe(4-COOH)]G[Pro(trans-4-NH2)][1Nal(3S-Me)]D[dNMeA]G[Bip(4'-COOH)]KG[dA][hTyr])
SMILES: CC(=O)NCCOc1ccc(C[C@@H]2NC(=O)[C@H](CCc3ccc(O)cc3)NC(=O)[C@@H](C)NC(=O)CNC(=O)[C@H](CCCCN)NC(=O)[C@H](Cc3ccc(-c4ccc(C(=O)O)cc4)cc3)NC(=O)CNC(=O)[C@@H](C)N(C)C(=O)[C@H](CC(=O)O)NC(=O)[C@H]([C@@H](C)c3cccc4ccccc34)NC(=O)[C@@H]3C[C@@H](N)CN3C(=O)CNC(=O)[C@H](Cc3ccc(C(=O)O)cc3)NC(=O)[C@H](Cc3c[nH]c4ccccc34)NC2=O)cc1
B11: SEQ ID NO: 107 (peptide)
peptide: cyclo([TyrEtNAc]W[Phe(4-COOH)]G[Pro(trans-4-NH2)][1Nal(3S-Me)]D[dNMeA]G[Bip(4'-COOH)]KG[Aib][hTyr])
SMILES: CC(=O)NCCOc1ccc(C[C@@H]2NC(=O)[C@H](CCc3ccc(O)cc3)NC(=O)C(C)(C)NC(=O)CNC(=O)[C@H](CCCCN)NC(=O)[C@H](Cc3ccc(-c4ccc(C(=O)O)cc4)cc3)NC(=O)CNC(=O)[C@@H](C)N(C)C(=O)[C@H](CC(=O)O)NC(=O)[C@H]([C@@H](C)c3cccc4ccccc34)NC(=O)[C@@H]3C[C@@H](N)CN3C(=O)CNC(=O)[C@H](Cc3ccc(C(=O)O)cc3)NC(=O)[C@H](Cc3c[nH]c4ccccc34)NC2=O)cc1
B12: SEQ ID NO: 104 (peptide)
peptide: cyclo([TyrEtNAc]W[Phe(4-COOH)]G[Pro(trans-4-NH2)][1Nal(3S-Me)]D[dNMeA]G[Bip(4'-COOH)][4Pal]S[dA][hF3CF3])
SMILES: CC(=O)NCCOc1ccc(C[C@@H]2NC(=O)[C@H](CCc3cccc(C(F)(F)F)c3)NC(=O)[C@@H](C)NC(=O)[C@H](CO)NC(=O)[C@H](Cc3ccncc3)NC(=O)[C@H](Cc3ccc(-c4ccc(C(=O)O)cc4)cc3)NC(=O)CNC(=O)[C@@H](C)N(C)C(=O)[C@H](CC(=O)O)NC(=O)[C@H]([C@@H](C)c3cccc4ccccc34)NC(=O)[C@@H]3C[C@@H](N)CN3C(=O)CNC(=O)[C@H](Cc3ccc(C(=O)O)cc3)NC(=O)[C@H](Cc3c[nH]c4ccccc34)NC2=O)cc1
B13: SEQ ID NO: 101 (peptide)
peptide: cyclo([TyrEtNAc]W[Phe(4-COOH)]G[Pro(trans-4-NH2)][1Nal(3S-Me)]D[dNMeA]G[Bip(4'-COOH)][4Pal][Dab][dA][hTyr])
SMILES: CC(=O)NCCOc1ccc(C[C@@H]2NC(=O)[C@H](CCc3ccc(O)cc3)NC(=O)[C@@H](C)NC(=O)[C@H](CCN)NC(=O)[C@H](Cc3ccncc3)NC(=O)[C@H](Cc3ccc(-c4ccc(C(=O)O)cc4)cc3)NC(=O)CNC(=O)[C@@H](C)N(C)C(=O)[C@H](CC(=O)O)NC(=O)[C@H]([C@@H](C)c3cccc4ccccc34)NC(=O)[C@@H]3C[C@@H](N)CN3C(=O)CNC(=O)[C@H](Cc3ccc(C(=O)O)cc3)NC(=O)[C@H](Cc3c[nH]c4ccccc34)NC2=O)cc1

biological target: Recombinant human IL-1β (BioLegend 579404) (human, UniProt P01584 117-269); assay: cell-based or functional assay

Row | MRC5 IC50 | Binder
1 | 0.0421 nM | B1
2 | 0.0263 nM | B2
3 | 0.133 nM | B3
4 | 0.066 nM | B4
5 | 0.196 nM | B5
6 | 0.0775 nM | B6
7 | 0.274 nM | B7
8 | 0.0908 nM | B8
9 | 0.091 nM | B9
10 | 0.102 nM | B10
11 | 0.0582 nM | B11
12 | 0.041 nM | B12
13 | 0.247 nM | B13
